The record followed here is the DeepSol protein solubility set.

The nature of this data set: soluble on expression in E. coli; label from the status in PepcDB or PDB records.
On to “MSLFKSQTAILPEAGPFALYTLLKVRQNHAHVLQALKALPALVEEINQNQPGAELTVSVAFSKGFWSHFEMASPPELIDFPELGEGETHAPSTDVDVLIHCHATRHDLLFYTLRKGISDIAQDIEIVDETYGFRYLDARDMTGFIDGTENPKAEKRAEVALVADGDFAGGSYVMVQRFVHNLPAWNRLNLAAQEKVIGRTKPDSVELENVPAASHVGRVDIKEEGKGLKIVRHSLPYGSVSGDHGLLFIAYCHTLHNFKTMLESMYGVTDGKTDQLLRFTKAVTGAYFFAPSQVMLQELTLKNQEGGSHHHHHH”, for which the “soluble on expression in E. coli” value is “soluble”. Consider “MSLFLIMSGAYVGQELESEFGRIPPSFLPLGNRRLFQHQVALAPQGVKVYLSLPESYVVSEIDLQWLEQNQVTIIATPDGLSLGASLVAALNISGHSLNAPLHILYGDTLFNQLPVGDDIVSVSTAKDSYNWAVLTNDDVDWLQDANTPMSHESQRIIDGYFKFSHPRELVRCITQSEWKFIAGLNRYHKSVGLSAVNSIGWLDFGHVNTYYHSKAEFTTQRAFNELTITAKWIEKSSIKNQKIAAEAYWFDNLPMAMRGFIPQYLGSQNSEGKISYRLEYLYLTALNELFVFSRLPSQIWQKILASAVEFLSLCLEQAVEPNAPINTLDILFADKTALRLNEFCAARHITLEDQWQFAGQDISLAQILRDSQKHLPDGKPLLGVLHGDFCFSNILYDFRANKIKTIDPRGMTPDGQKTLYGDIRYDLAKLSHSILGLYDWIIAGYYHVEIADNAIELKIAEQSHHKETQQGFIELIEQTFGLTAKNLYAMQIQLFLSMLPLHADDRRRQDALFANAFRLHQILLRLDQEGHHHHHH”, for which the “soluble on expression in E. coli” value is “soluble”. For “MSLFLSNVILHQLRKNDNDELVVNYRAESLRNDTSTENLVAELHRVFNAKAGKGFGCFKSDSEFQLWLQEMRRGTLPFYEFSQQSAQRLKNELAKYPFADEGILVMAEYQSLATDYLFIGLLPLNQSLKVTEGLDISATDYLDINKMDIVARIDLSSYETDKESKRYLSYIKGRVGRKVADFFLDFLQADIGLDTKQQNQVLMQAVEDFCADAKFEKEEVISYKKQVYEYCNDQIKAGDEVRVQELSGELPPSNEGVNFFDFTREQGYQLEESFPADRSTVRKLTKYVGAGGGLNLSFDSLLLGERVFYDPETDTLTIKGTPPNLRDQLTRLRLEHHHHHH”, the “soluble on expression in E. coli” value was “soluble”. “MSLGAIVEVITIKNYSLKSENYEAEIDIPKIRGLKDKNLEQRLNSSFMEDGKRLYHQFQERMEKIQSSKNKGYKSLSLSYSVKNNSKKFLSIEMTKNEIEASSYVSKVHYTIDKKRQIVLTLPMLFKDDKYIKVISDNIKEQMREQMKKDSTKSYFIDEGHHHHHH”: the “soluble on expression in E. coli” value is recorded as “not soluble”. Turning to “MSLGASATRILFVDDEPSILKSLRRVTRSMSAECIFVDNGRDALALMRENPFDVVVSDMRMPEMDGATLLAEIARDYPETMRLVLSGFAEDDLILAAINEGRVWGFIHKPWDDHQLIVTLQHAVTTQQMMVERALLRRTVERYTSELKESFVSFVGGSLPMQAVYNQIERAAPSNASVFITGPSGTGKELAAEAIHKLSERKNGPFIALNCAAIPTELMESEIFGHVKGAFTGAVSARDGAATQAHNGTLFLDEIGEMDISLQAKLLRFIQTGSFQKVGGTKQENVNIRFVCATNRAPLDAIANGTLREDLYYRLNVVALHLPPLNQRENDPILLANTFLQRFAAQERKELVGFSSEASSLILGYDWPGNVRQLQNCIHNVVVMSAGPLITPNDIAIALQLDPQQVATEGHHHHHH”, the “soluble on expression in E. coli” value was “not soluble”.

For the sequence “MSLGECPEYGKVKWIGNIYCHKYDEATTTLLSISTGTQSLGQDLKQRQAQLSIAKLTALAAEVQDLEKLNEIQTELDLIDGQILLSQELQESTLNPLFKDFTTYRTLFKYLSDAVKRRESLSVPHMIELFTLLNQDTSYGFALSILAIDHTLPTEVKKYCEYQIWRRCLLSDENAVRQTLRVFFKQQFYHQSIELPIIDNLANEKLITDSYLDGMYHGLTDLNKLASDVKREVALFANSNLDVTMLQSIIGEINEETGNQCVINYATNTIETSPTSEGHHHHHH”, the “soluble on expression in E. coli” value was “soluble”. As to “MSLGEPAQPGAKKYVLFDVDGTLIDAVDNQRRVWRVWAERYGLDPGEVYQVALRTRPMETFAQVAPDRDPQECLAALHELEDEDVRSGVYAAFDGASELLDALPPESWALVTSNYEHRVRGRFARTGLPVPSIIVDAASVEEGKPSPVPYLLAAKRLGADPQDCLVIEDAPSGVRSALRAGMTVWGVNAPVAVDGVHRHFGSLREAIRDILAVTSGTRPHEPRGSAAVEGHHHHHH”, the “soluble on expression in E. coli” value is on record as “soluble”. With “MSLGFAGDGKTYTASELAIGLVMLMRQRGIEAGNRPVMFLDTETGSDWVKPRFDAENIELFTAKTRSFVDLLEAINEAESSGSVMIIDSISHFWTGLCDEYARRRNRKRGLEFSDWAWLKQEWRRFTDRFVNSQAHIIMCGRAGYEYDFFEGDDGKRQLAKTGIKMKAETETGYEPSIRIQMEKQMNIETGQVWRTARILKDRSTRIDGQVFSNPTFKNFLPHIESLNLGGEHPGIDTSRDNSELFANDGTPTWLKEKRAKEIALDEIIELLNKHHGGTSNDAKRAKADLLEKTFTSRSWERIKGMDWPTIKAGRNALWIELEGVEYAFPDEGHHHHHH”, the “soluble on expression in E. coli” value was “soluble”. As for “MSLGINGFTAHAQKLSLIYNTLDSRDMPTRGLYAKAAIEGSAEFLGSDASYRHYEAELKGYFPLKEARYITVARVAYNQTLGSDVPFLERSILGGESTLRGYGRNRFIDSSYFLCNLEERIRLFRWSVFDVNTDWEVAPFIDLGAVMESLDKTRSKNFEFNPGIGFRAVVRPNIVGRVDIGVGNDGPAVFVGLGYPFEGHHHHHH”, the “soluble on expression in E. coli” value was “not soluble”. On to “MSLGKHVTIGFAGPQADHGWLNAINDNAKSRAKKYGDVTLEITEGSNDTAAQIGQIETLINKKVDVLVVLPADGKALTQVGLKAMRAGIPVVNLDRIFNSPQAYRCWIGGDNYGMGLSAGRYIGEKLKDKPNARVVELAGLDNLELTKQRTQGFDAALKNYPNIRKVARQAAEFTVESGQSKMAQLLQAQSRFDALWNHDDDQGVGALRAIKQAGRDDFLMVGGAGALSAFQAIKADDGVLKATVLYPPTMAASAIDLARALGQGKGVGGLAEFEIPASLTLYSAVVDKDNVGQYMSTGFREGHHHHHH”, for which the “soluble on expression in E. coli” value is given as “soluble”. As to “MSLGMHGAAHIVWDWNGTLFHDNAAIIGATNAAFAELGLEPITLERYRALYCVPVPKFYERLIGRLPTDAEWEIMDEIFHRYYAEHRVGCGLTEGAAELLVEWQSAGHSQSILSMYVHDELVPLVRGFGIEPHFIRVDGRTGPSGGSKAEHMVRHIGALAGVAGVDPARTVVIGDAADDAVAALHVGAQAVLYTGGSHSRASLEGVGVPVVDTLAEAVEEAGRLAAEGHHHHHH”, the “soluble on expression in E. coli” value is given as “soluble”. Next, “MSLGNAMNITSCISQSECSCQLSESTSDTNSNSSFKTRSLGYDRSSQSLSISDVELGFKSVTETSSNNYRLRRIIESNDFFKDVMYKFFLLRENSLVLDQSKSYYSDKDPHYSIICSDYYVFALRRILIEGHHHHHH”: “not soluble”; “MSLGNRMKVCIYGAGAIGGYLGVQLAQSGAADVSLVARGAHLQAMKENGLKLLIEGEERVIKPNATDKPAELGVQDVIIICLKAHSITGAIDSMKPLLGSHTRIVTAVNGVPYWYFHKHGGNEFEGRTLESIDPGGRQWKELGPERGIGCIVYPATELEAPGVIRHVYGDKFPIGEPSGETTSDVENLSKVFEASGLKAPILDRIRDEIWLKLWGNVCFNPISALTHATLDVIASDPATRALSKAMMLEAQQIAETFGVKFRVDVERRIEGARKVGAHKTSMLQDLERGRPMEIDPLVTVVQEMGRMTNIPTPAIDSVLGLVIQRAKVAGLYEGHHHHHH”: “soluble”. Take “MSLGNYAKPIGTAPVTANPTDYSSALVCLNQYARTNRIVAPRIAIGRIADYTGKEESDGSGRKVTQGASLMAVSAFAKAGMPLVERFDTSVSEFELKYANNKLISDRPNPAPDAPADFRKILAGQVPGSDFYVIGGITELNYNIRSAGIDAYAGDKDTDGLKGNFRRRVFIMNIALDLRLVNTRTLEVVDVISYQKQVVGREVSAGVFDFLNGNLFDISAGRGALEPMQLAVRALIERATVEMAANLYGMPGPESCLRFDPFGDATVGQTGAFTPAYNNLGTNNAQTRDDPSRWNARRDPDIRDAKRGRYEGHHHHHH”: the “soluble on expression in E. coli” value was “not soluble”.
